The values that follow come from publication PMC4191421.

Data set [1] addresses BLM RecQ-core (core-BLM) (human) (UniProt P54132). As to the kind of experiment: smFRET (GQ unfolding). As to conditions: smFRET: 150 mM K+ (or 50 mM K+, 50/150 mM Na+), 5 mM Mg2+, pH 7.5, EMSA: 50 mM K+, 50 mM Tris-HCl pH 7.5, 1 mM DTT, 22 C; for binding signal (% unfolded at 25 nM): 50 mM Na+; for binding signal: 150 mM K+, saturating BLM. A general note: In EMSA bound probe runs differently from free probe, usually more slowly.

For data set [2], the target named is WRN (human) (UniProt Q14191). In words: smFRET (GQ unfolding). Conditions: 50 mM Na+, strand 2 is RNA, smFRET: 150 mM K+ (or 50 mM K+, 50/150 mM Na+), 5 mM Mg2+, pH 7.5, EMSA: 50 mM K+, 50 mM Tris-HCl pH 7.5, 1 mM DTT, 22 C.
Data set [3] addresses BLM RecQ-core (core-BLM) (human) (UniProt P54132). In words: smFRET (GQ unfolding titration, Langmuir). As to conditions: strand 2 is RNA, smFRET: 150 mM K+ (or 50 mM K+, 50/150 mM Na+), 5 mM Mg2+, pH 7.5, EMSA: 50 mM K+, 50 mM Tris-HCl pH 7.5, 1 mM DTT, 22 C.
Data set [4] has the same target. As to the kind of experiment: smFRET. As to conditions: smFRET: 150 mM K+ (or 50 mM K+, 50/150 mM Na+), 5 mM Mg2+, pH 7.5, EMSA: 50 mM K+, 50 mM Tris-HCl pH 7.5, 1 mM DTT, 22 C.
The target is the same in data set [5]. As to the kind of experiment: smFRET. Conditions: strand 2 is RNA, smFRET: 150 mM K+ (or 50 mM K+, 50/150 mM Na+), 5 mM Mg2+, pH 7.5, EMSA: 50 mM K+, 50 mM Tris-HCl pH 7.5, 1 mM DTT, 22 C.
Where [6] appears, read: nt-free, 150 mM Na+, strand 2 is RNA.

Where “and” joins values, the source holds several entries; their conditions need not be identical. Equal entries are not always repeated.

BLM RecQ-core (core-BLM) (human), sequence (P54132 642-1290): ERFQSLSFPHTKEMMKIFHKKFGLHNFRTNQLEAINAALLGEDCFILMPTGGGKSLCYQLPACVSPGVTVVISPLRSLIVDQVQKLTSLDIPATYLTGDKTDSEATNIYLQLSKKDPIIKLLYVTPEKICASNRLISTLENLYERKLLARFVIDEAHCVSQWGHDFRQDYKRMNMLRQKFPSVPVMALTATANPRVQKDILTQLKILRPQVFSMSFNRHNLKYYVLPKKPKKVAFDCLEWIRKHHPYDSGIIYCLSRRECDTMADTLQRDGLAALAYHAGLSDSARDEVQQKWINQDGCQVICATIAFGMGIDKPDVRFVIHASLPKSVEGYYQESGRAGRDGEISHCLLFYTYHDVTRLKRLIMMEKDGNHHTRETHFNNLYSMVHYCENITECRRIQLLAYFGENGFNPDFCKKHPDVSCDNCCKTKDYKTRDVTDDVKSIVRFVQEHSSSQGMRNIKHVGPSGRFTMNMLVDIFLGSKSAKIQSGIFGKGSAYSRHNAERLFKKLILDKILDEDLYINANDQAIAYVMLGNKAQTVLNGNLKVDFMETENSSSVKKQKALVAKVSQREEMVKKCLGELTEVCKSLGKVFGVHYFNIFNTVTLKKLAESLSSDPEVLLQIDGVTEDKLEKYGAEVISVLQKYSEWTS
WRN (human), sequence (Q14191 whole entry): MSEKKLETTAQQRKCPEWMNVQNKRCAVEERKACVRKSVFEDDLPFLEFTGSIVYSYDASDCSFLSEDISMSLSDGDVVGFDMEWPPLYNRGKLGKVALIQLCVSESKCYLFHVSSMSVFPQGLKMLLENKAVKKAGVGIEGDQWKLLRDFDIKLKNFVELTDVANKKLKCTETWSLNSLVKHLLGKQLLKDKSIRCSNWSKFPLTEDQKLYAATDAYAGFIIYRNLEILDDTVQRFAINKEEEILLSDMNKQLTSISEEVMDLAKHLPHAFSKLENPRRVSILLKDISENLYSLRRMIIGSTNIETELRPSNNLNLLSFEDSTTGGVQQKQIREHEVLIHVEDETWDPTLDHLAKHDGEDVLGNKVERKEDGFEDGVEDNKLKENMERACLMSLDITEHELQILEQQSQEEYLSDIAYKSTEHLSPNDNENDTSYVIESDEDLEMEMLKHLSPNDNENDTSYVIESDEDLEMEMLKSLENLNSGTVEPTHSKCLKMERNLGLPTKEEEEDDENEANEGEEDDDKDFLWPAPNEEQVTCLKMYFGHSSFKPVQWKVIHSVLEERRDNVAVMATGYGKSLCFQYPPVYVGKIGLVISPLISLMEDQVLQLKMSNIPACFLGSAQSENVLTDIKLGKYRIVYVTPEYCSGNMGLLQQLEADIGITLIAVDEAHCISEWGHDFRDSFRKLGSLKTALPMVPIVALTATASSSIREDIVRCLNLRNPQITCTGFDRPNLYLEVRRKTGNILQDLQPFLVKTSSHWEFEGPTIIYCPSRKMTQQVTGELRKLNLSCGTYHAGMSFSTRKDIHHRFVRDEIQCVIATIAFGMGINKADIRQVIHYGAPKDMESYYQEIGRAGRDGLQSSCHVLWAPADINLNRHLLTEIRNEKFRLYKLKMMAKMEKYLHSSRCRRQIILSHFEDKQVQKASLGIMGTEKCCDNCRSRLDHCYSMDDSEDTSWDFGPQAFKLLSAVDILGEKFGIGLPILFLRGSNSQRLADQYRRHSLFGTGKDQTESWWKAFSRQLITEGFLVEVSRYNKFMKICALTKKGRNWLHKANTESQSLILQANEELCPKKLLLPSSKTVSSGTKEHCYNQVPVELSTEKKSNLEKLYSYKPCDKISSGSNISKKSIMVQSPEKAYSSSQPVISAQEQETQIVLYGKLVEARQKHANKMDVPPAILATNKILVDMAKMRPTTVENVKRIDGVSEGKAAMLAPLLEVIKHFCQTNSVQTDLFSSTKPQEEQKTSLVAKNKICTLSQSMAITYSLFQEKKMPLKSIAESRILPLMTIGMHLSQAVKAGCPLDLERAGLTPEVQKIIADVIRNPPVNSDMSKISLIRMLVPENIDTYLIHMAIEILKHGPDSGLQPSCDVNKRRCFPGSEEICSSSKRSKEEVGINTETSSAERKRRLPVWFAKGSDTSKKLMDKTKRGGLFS

With “TGGCGACGGCAGCGAGGCTAGGGTTAGGGTTAGGGTTAGGGTTTTTTTTTTTT / GCCUCGCUGCCGUCGCCA [pd-hGQ12T]”, the binding signal (% unfolded at 25 nM) was determined as 25 in data set [1] (ATPgS, strand 2 is RNA); 18 in data set [1] (nt-free, strand 2 is RNA); 25 in data set [2] (ATPgS); 8 in data set [2] (nt-free). Also, in data set [1] (setting [6]), the binding signal (% unfolded at 300 nM) worked out at 17. In data set [1] (setting [6]), this sequence registered a binding signal (% unfolded at 1000 nM) of 38. Further, the K half in data set [3] (1 mM ADP, 150 mM K+, alpha 32%) was 55 nM; in data set [3] (1 mM ATPgS, 150 mM K+, alpha 53%) it was 108 nM; in data set [3] (nt-free, 50 mM K+, alpha 55%) it was 28 nM; in data set [3] (nt-free, 150 mM K+, alpha 49%), 305 nM.

“TGGCGACGGCAGCGAGGCTAGGGTTAGGGTTAGGGTTAGGGTTTTTTTTTTTTTTT / GCCUCGCUGCCGUCGCCA [pd-hGQ15T]”: the binding signal in data set [1] (ADP, strand 2 is RNA) is 22 % unfolded; in data set [1] (ATPgS, strand 2 is RNA), 57 % unfolded; in data set [1] (nt-free, strand 2 is RNA), 48 % unfolded.

With “TGGCGACGGCAGCGAGGCTTGGGTGGGTGGGTGGGTTTTTTTTTTTT / GCCUCGCUGCCGUCGCCA [pd-3Ly1Lp12T]”, in data set [1] (strand 2 is RNA), the binding signal (% unfolded at 1 uM) is 46 and 58.

Consider “TGGCGACGGCAGCGAGGCTTTTTTTTTTTTTTT / GCCUCGCUGCCGUCGCCA [pd-polyT15]”, for which the binding signal (% bound at 1 uM) is 12 in data set [4] (1 mM ADP, 150 mM K+, strand 2 is RNA); 21 in data set [4] (strand 2 is RNA); 36 in data set [5]. In data set [4] (nt-free, strand 2 is RNA), this sequence had a binding signal (fold higher Keq in 150 vs 50 mM Na+) of 4.7.

For the sequence “TTTTTTTTTTTTGGGTTAGGGTTAGGGTTAGGGTTTGGCGACGGCAGCGAGGC / GCCTCGCTGCCGTCGCCA [pd-hGQ12T-5']”, the binding signal (% unfolded at 1 uM) in data set [1] (ATPgS, 50 mM K+) was 30; in data set [1] (nt-free, 50 mM K+), 21.

In turn, “TTTTTTTTTTTTTTTTGGCGACGGCAGCGAGGC / GCCTCGCTGCCGTCGCCA [pd-polyT15-5']” showed a binding signal (% bound at 1 uM) in data set [4] (1 mM ATPgS, 50 mM K+) of 53.
